The results in this text go back to the DeepSol protein solubility set.

A short description of this data set: soluble on expression in E. coli; label from the status in PepcDB or PDB records.
As to “MGVKRKKMGKVAGFTEWTAEDLEAFRARWPIGTAQRLALELYQWTGARCVDVIRLGPQMVGRDGVLTYVQQKTGNPAHVPWTCPAFGLEEQRADLMRCLPVGSPVYMLTEYGKPRTQKGVSQWFSAAAREAGLESRTAHGLRKYRMNALAEHGASVLVMQSWVGHTTLLEVQEYTRRADRRRVISGGHPVKRDPAGAAAALEHHHHHH”, the “soluble on expression in E. coli” value is “soluble”.
The same measure for “MGVLQATVLWAGPIPRVGNPPNWTSPSSSGLLFFYFFFTSTSDFTMEAPPAPKKARRSEVSRMQDESVLCDDDEEDSPFTLYFVDLPNEPTVKEIRNLEELFKTAKAVGIMPEWIDSDALEDLQKSEDFFVLPCFRGKLFRKLQARKLKVYGPPIVLESIEDGKQLPQWNHPVYSSVFQDVKISFTGLNLTKKQELYEKIGWMCGVVGDALYHETTHLVTEKAEQTEKYKAAVNNSIKLMRIGWIDDLWETSQTTMGRFSALSRDSVNSYALRVFEGLEMAITSIDGADRTNFIQLIEDHGGKVPGTMSKTRFFFSVFHYKICSFLGALLSIQMMLPEKAFYRKYHPKYLTADHIRSSTPKRDANVTESVPDISSIAGHGGRLGTSSFNSSIPQMDQSYQHQSGSSFISFASTSKIPSSTFTNNDSTLGRSGSGVRDGISTPIARVQTTPLIRYPTTQTASVQNIADVISDPIDELRKNIDDGLGDLFENCMFYICGVDESRMEKWRRFLNETGATRVAKFTSATNVVVVSPNQQERITIRKHLHQEDIAIVTVGWVVECVKQRKMISVEGYQWTENTADESQSSQSQLQPVRPQPLPRTSSKSTIPYGKTSGPSSTSTQVGIFSYHTYCVHCSVDQEVSDDLKEKIPLNGGKLMDDPDYAEFVIFGHSGPMHELISFDAVVTDFYIYASIGNNRFLNRSCYPLFVPLPRPPILIFNQRGFQLKCKDPFLRDRVRDIIEDNGGRIVEQLEPKDFIIMIDAEDNPPRYHSRTLDFSWIIASVSRCRLQPIDNFLYKNNTRPLSGFQRDDDLWEKCSREKNNSTQEMEVEVEDRHRVQDLPVETGNGNIGDMTTPYVNPYFPDLRKPYTMNLQLDGVSEYINNMESPARETQETLTTSRVGSILRKAVVNTGRNEDFEDEPSTCHLIRPRVPENRKTVSSTPVLVRDVNRSMRYMPMDESFADQNQEHEDLNRRYAMNPRFLLSVSNMDPQRAADLQETIMKLGGTIEREFNKDVTHLIASNMQRAPKVLCSIAAGKWCLTPDYVTKSAEVGRWLDEKSFEWTREKLLACSKKNESLKERDSRKVSENLAAVCGLWRQRVAEMPVTFSVSMENRQNGAFSDWRCVIHLDDKRAGVFSSILEAGGAIVHSISEYVEVSTLKPNIVLASKEFPWNPQSAVLLKRDNIPIYVFDILYDFLIDRDNLNRTKFWHNVYMKA”: “not soluble”; for “MGYASKLALKICLASLCLFSALGAEHLEQKRNYIYKGEEAYNNKEYERAASFYKSAIKNGEPLAYVLLGIMYENGRGVPKDEKKAAEYFQKAVDNDIPRGYNNLGVMYKEGRGVPKDEKKAVEYFRIATEKGYTNAYINLGIMYMEGRGVPSNYVKATECFRKAMHKGNVEAYILLGDIYYSGNDQLGIEPDKDKAIVYYKMAADMSSSRAYEGLAESYQYGLGVEKDKKKAEEYMQKACDFDIDKNCKKKNTSSRLEHHHHHH”: “soluble”.
The value for “MHAGEAVQQLKKAFETVASFDFRDALSKASTPVTVVATNGPFGLAGLTCSAVCSVCDRPPTVLLCINRKSYAAGIIKSNGVLSVNWLAAGQAVISQTFAGVGSVPMEERFADKGWQTIATGAPYRMDAAVSFDCTIANIVDVGSHSVIFAEVVARNHAEECTPLIYHRRQYATTRSLAEHHHHHH” was “soluble”; that for “MHESIQMIIDRIDHLVLTVSDISTTIRFYEEVLGFSAVTFKQNRKALIFGAQKINLHQQEMEFEPKASRPTPGSADLCFITSTPINDVVSEILQAGISIVEGPVERTGATGEIMSIYIRDPDGNLIEISQYVLEHHHHHH” was “not soluble”; that for “MHEWALADAIVRTVLDYAQREGASRVKAVRVVLGELQDVAEDIVKFAMEQLFAGTIAEGAEIEFVEEEAVFKCRNCNYEWKLKEVKDKFDERIKEDIHFIPEVVHAFLACPKCGSHDFEVVKGRGVYVAGIKIEKEGGS” was “soluble”.
The value for “MHGEETPRTDLTLFSEKMQELKSRIASVIVGQERTVDLVLTAILANGHVLIEGVPGVAKTLLARLTARLIDADFSRVQFTPDLMPSDVLGTTVFNMKTNEFDFHRGPVFANIILVDEINRAPAKTQSALFEVMEERQASIDGTTYRMGELYTILATQNPVEQEGTYKLPEAQLDRFLMKITMDYPSLDEEINILERHHTNAALVKLEEIQPVITREELLSLRRLTEKVFVDRTLLQYIALIAQQTRTSKAVYLGASPRASVAMLQASKAYALLQGRDFVTPEDIKFVAPYVLQHRLILTAEAEMEGYSPVKVTQRLIDKVEVPKLEHHHHHH” was “soluble”; that for “MHHHHHHAMDTYKLFIVIGDRVVVVTTEAVDAATAEKVFKQYANDNGVDGEWTYDDAAKTFTVTE” was “soluble”; that for “MHHHHHHGKPIPNPLLGLDSTENLYFQGIDPFTMNNRNHDVLSRMISEKAALHGLLNCLIKEFAIPEGYLRYEWPDEMKGIPPGAYFDGADWKGIPMMIGLPDQLQLFVMVDRRDTFGSQHYLSDVYLRQAQGDWQCPDFEPLVARLLAACEHIAGRKNPELYEQILQSQRLVSAIVSHNGRQRADAPLQHYLQSEQGLWFGHPSHPAPKARLWPAHLGQEQWAPEFQARAALHQFEVPVDGLHIGANGLTPQQVLDGFADQQPASPGHAIICMHPVQAQLFMQDARVQQLLRDNVIRDLGQSGRVASPTASIRTWFIDDHDYFIKGSLNVRITNCVRKNAWYELESTVLIDRLFRQLLDQHADTLGGLVAAAEPGVVSWSPAAAGELDSHWFREQTGGILRENFCRRTGAERSIMAGTLFARGVDLQPMIQTFLRTHYGEALDDNALLYWFDDYQTRLLRPVLSLFFNHGVVMEPHLQNSVLVHQQGRPQQVLLRDFEGVKLTDDLGIRYIDDDIHPRVRQSLLYSREQGWNRIMYCLFINHLSETILALSQGRPQLAPLMWRRVQQQLRAIQGELKQPSPELDALIAGHPVACKTNLKVRLAAEADRQASYVRLPSPWGHAVQHGSEVQHDERRHGDVRHEEARHGEVQHG” was “soluble”.
Regarding “MHHHHHHGMASMTARPLSELVERGWAAALEPVADQVAHMGQFLRAEIAAGRRYLPAGSNVLRAFTFPFDNVRVLIVGQDPYPTPGHAVGLSFSVAPDVRPWPRSLANIFDEYTADLGYPLPSNGDLTPWAQRGVLLLNRVLTVRPSNPASHRGKGWEAVTECAIRALAARAAPLVAILWGRDASTLKPMLAAGNCVAIESPHPSPLSASRGFFGSRPFSRANELLVGMGAEPIDWRLP”, the “soluble on expression in E. coli” value is on record as “soluble”.
The same measure for “MHHHHHHLTKVFGSRNDRTLRRMRKVVNIINAMEPEMEKLSDEELKGKTAEFRARLEKGEVLENLIPEAFAVVREASKRVFGMRHFDVQLLGGMVLNERCIAEMRTGEGKTLTATLPAYLNALTGKGVHVVTVNDYLAQRDAENNRPLFEFLGLTVGINLPGMPAPAKREAYAADITYGTNNEYGFDYLRDNMAFSPEERVQRKLHYALVDEVDSILIDEARTPLIISGANQTLASITFQNYFRLYEKLAGMTGTADTEAFEFSSIYKLDTVVVPTNRPMIRKDLPDLVYMTEAEKIQAIIEDIKERTAKGQPVLVGTISIEKSELVSNELTKAGIKHNVLNAKFHANEAAIVAQAGYPAAVTIATNMAGRGTDIVLGGSWQAEVAALENPTAEQIEKIKADWQVRHDAVLEAGGLHIIGTERHESRRIDNQLRGRSGRQGDAGSSRFYLSMEDALMRIFASDRVSGMMRK”: “soluble”; for “MHHHHHHRMKQLEDKVEELLSKNYHLENEVARLRSPPLLVGVVSDILEDGRVVVKSSTGPKFVVNTSQYINEEELKPGARVALNQQTLAIVNVLPTSKDPMVYGFEVEE”: “soluble”; for “MHHHHHHSSGRENLYFQGSSESVRVVVRCRPMNGKEKAASYDKVVDVDVKLGQVSVKNPKGTAHEMPKTFTFDAVYDWNAKQFELYDETFRPLVDSVLQGFNGTIFAYGQTGTGKTYTMEGIRGDPEKRGVIPNSFDHIFTHISRSQNQQYLVRASYLEIYQEEIRDLLSKDQTKRLELKERPDTGVYVKDLSSFVTKSVKEIEHVMNVGNQNRSVGATNMNEHSSRSHAIFVITIECSEVGLDGENHIRVGKLNLVDLAGSERQAKTGAQGERLKEATKINLSLSALGNVISALVDGKSTHIPYRDSKLTRLLQDSLGGNAKTVMVANVGPASYNVEETLTTLRYANRAKNIKNKPRVNEDPKDALLREFQ”: “soluble”.
With “MHHHHHHSSGVDLGTENLYFQSMAARVLIIGSGGREHTLAWKLAQSHHVKQVLVAPGNAGTACSEKISNTAISISDHTALAQFCKEKKIEFVVVGPEAPLAAGIVGNLRSAGVQCFGPTAEAAQLESSKRFAKEFMDRHGIPTAQWKAFTKPEEACSFILSADFPALVVKASGLAAGKGVIVAKSKEEACKAVQEIMQEKAFGAAGETIVIEELLDGEEVSCLCFTDGKTVAPMPPAQDHKRLLEGDGGPNTGGMGAYCPAPQVSNDLLLKIKDTVLQRTVDGMQQEGTPYTGILYAGIMLTKNGPKVLEFNCRFGDPECQVILPLLKSDLYEVIQSTLDGLLCTSLPVWLENHTALTVVMASKGYPGDYTKGVEITGFPEAQALGLEVFHAGTALKNGKVVTHGGRVLAVTAIRENLISALEEAKKGLAAIKFEGAIYRKDIGFRAIAFLQ”, the “soluble on expression in E. coli” value is “soluble”.
Take “MHHHHHHSSGVDLGTENLYFQSMADSEALPSLAGDPVAVEALLRAVFGVVVDEAIQKGTSVSQKVCEWKEPEELKQLLDLELRSQGESQKQILERCRAVIRYSVKTGHPRFFNQLFSGLDPHALAGRIITESLNTSQYTYEIAPVFVLMEEEVLRKLRALVGWSSGDGIFCPGGSISNMYAVNLARYQRYPDCKQRGLRTLPPLALFTSKECHYSIQKGAAFLGLGTDSVRVVKADERGKMVPEDLERQIGMAEAEGAVPFLVSATSGTTVLGAFDPLEAIADVCQRHGLWLHVDAAWGGSVLLSQTHRHLLDGIQRADSVAWNPHKLLAAGLQCSALLLQDTSNLLKRCHGSQASYLFQQDKFYDVALDTGDKVVQCGRRVDCLKLWLMWKAQGDQGLERRIDQAFVLARYLVEEMKKREGFELVMEPEFVNVCFWFVPPSLRGKQESPDYHERLSKVAPVLKERMVKEGSMMIGYQPHGTRGNFFRVVVANSALTCADMDFLLNELERLGQDL”: the “soluble on expression in E. coli” value is “soluble”.
“MHHHHHHSSGVDLGTENLYFQSMDVGIVALEIYFPSQYVDQAELEKYDGVDAGKYTIGLGQAKMGFCTDREDINSLCMTVVQNLMERNNLSYDCIGRLEVGTETIIDKSKSVKTNLMQLFEESGNTDIEGIDTTNACYGGTAAVFNAVNWIESSSWDGRYALVVAGDIAVYATGNARPTGGVGAVALLIGPNAPLIFERGLRGTHMQHAYDFYKPDMLSEYPIVDGKLSIQCYLSALDRCYSVYCKKIHAQWQKEGNDKDFTLNDFGFMIFHSPYCKLVQKSLARMLLNDFLNDQNRDKNSIYSGLEAFGDVKLEDTYFDRDVEKAFMKASSELFSQKTKASLLVSNQNGNMYTSSVYGSLASVLAQYSPQQLAGKRIGVFSYGSGLAATLYSLKVTQDATPGSALDKITASLCDLKSRLDSRTGVAPDVFAENMKLREDTHHLVNYIPQGSIDSLFEGTWYLVRVDEKHRRTYARRP”: the “soluble on expression in E. coli” value was “soluble”.
For the sequence “MHHHHHHSSGVDLGTENLYFQSMEKTELIQKAKLAEQAERYDDMATCMKAVTEQGAELSNEERNLLSVAYKNVVGGRRSAWRVISSIEQKTDTSDKKLQLIKDYREKVESELRSICTTVLELLDKYLIANATNPESKVFYLKMKGDYFRYLAEVACGDDRKQTIDNSQGAYQEAFDISKKEMQPTHPIRLGLALNFSVFYYEILNNPELACTLAKTAFDEAIAELDTLNEDSYKDSTLIMQLLRDNLTLWTSDSAG”, the “soluble on expression in E. coli” value is given as “soluble”.
